The text below walks through data of US20100135904A1 (RESEARCH DEVELOPMENT FOUNDATION, published 2010).

B3: endogenous human GRP78 (glucose regulated protein 78) at the cell surface (receptor)
chain: not shown
notes: whole, on cells; Endogenous protein; surface pool labelled with cell-impermeable biotin in the co-immunoprecipitations; also called BiP; cell surface GRP78

In assay [1] the target is T1, human GRP78 with a hemagglutinin (HA) epitope at its C terminus (human, UniProt P11021 19-654).
T1 construct: also called GRP78-HA; WT GRP78-HA
T1 sequence (P11021 19-654 limits assumed): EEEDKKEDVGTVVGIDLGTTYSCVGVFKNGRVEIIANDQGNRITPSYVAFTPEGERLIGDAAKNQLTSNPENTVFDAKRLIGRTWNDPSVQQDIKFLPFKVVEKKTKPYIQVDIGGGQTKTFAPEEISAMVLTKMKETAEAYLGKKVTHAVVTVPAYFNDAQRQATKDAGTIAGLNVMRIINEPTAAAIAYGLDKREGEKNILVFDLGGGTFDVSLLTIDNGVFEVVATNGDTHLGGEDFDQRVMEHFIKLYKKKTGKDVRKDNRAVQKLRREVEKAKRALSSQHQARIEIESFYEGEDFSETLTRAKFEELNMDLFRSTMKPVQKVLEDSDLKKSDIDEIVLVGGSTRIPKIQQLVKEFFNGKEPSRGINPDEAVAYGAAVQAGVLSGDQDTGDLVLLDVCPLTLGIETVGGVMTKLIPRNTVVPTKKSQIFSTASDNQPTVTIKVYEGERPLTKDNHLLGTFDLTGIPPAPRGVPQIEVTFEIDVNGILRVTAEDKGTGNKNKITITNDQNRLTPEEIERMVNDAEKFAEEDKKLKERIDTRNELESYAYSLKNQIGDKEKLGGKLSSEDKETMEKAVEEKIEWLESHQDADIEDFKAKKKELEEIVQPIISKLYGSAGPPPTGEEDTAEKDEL
Nature of the assay: cell-free pull-down of biotinylated GRP78-HA on Cripto mutant beads. An excerpt: To further characterize the ability of Cripto to bind cell surface GRP78, the inventors tested whether GRP78 from one population of cells could bind mature Cripto isolated from a separate cell population in a cell free system. […] The beads were then washed again and bound proteins were eluted with Flag peptide and subjected to Western blotting using avidin-HRP, anti-GRP78 or anti-Cripto antibodies. […] Moreover, biotinylated (i.e. cell surface-labeled) GRP78 was specifically eluted from beads previously exposed to Cripto-Flag lysates but not from beads exposed to vector lysates.
In order to explore the interaction between Cripto and GRP78 further, the inventors used the method described above (FIG. 2B) to test whether cell surface labeled GRP78 binds Cripto mutants lacking either the EGF-like domain (AEGF) or CFC domain (ACFC). In this experiment, the inventors assessed the ability of biotinylated, HA-tagged GRP78 from one cell population to bind wild type and mutant forms of Cripto originating from separate cell populations.

In assay [2] the target is B3. Nature of the assay: anti-HA immunoprecipitation from surface-biotinylated 293T cells, avidin-HRP and anti-GRP78 blots. As for the experimental part: (§1) Cell lysates and immunoprecipitations. Cell lysates were prepared in RIPA buffer as previously described (Gray et al., 2006). For immunoprecipitation experiments, 1-5 mg protein extract was pre-cleared by protein G-PLUS-Agarose beads for 2 hours at 4° C. The pre-cleared extracts were incubated as indicated with 40 μl anti-FLAG M2 gel beads or 20 μl G-PLUS-Agarose pre-incubated with 15 μl anti-GRP78 (KDEL), 10 μl anti-HA, or 25 μl anti-His for 2 hours at 4° C. Immunoprecipitates were subsequently washed 4 times with RIPA buffer and 2 times with 54K buffer (50 mM tris pH 7.9, 150 mM NaCl, 0.5% Triton X-100). The proteins were then eluted either by heating the beads at 95° C. in sample buffer or by the addition of 50 μl of Flag peptide (1 μg/μl) followed by removal of any remaining associated proteins by heating in sample buffer. Western blotting
(§2) The finding that GRP78 inhibits TGF-β signaling raised the possibility that it does so by binding directly to type I and/or type II TGF-β signaling receptors. […] Here the inventors have further tested whether GRP78 similarly co-immunoprecipitates with TBβRI and TBβRII. […] Each of these proteins was immunoprecipitated as bait and then immune complexes were assessed for the presence of GRP78. […] However, only Cripto pulled down endogenous GRP78 as detected both by avidin-HRP and anti-GRP78 antibody (FIG. 5).

For assay [3], the target named is T2, TGF-β type II receptor, His-tagged (TβRII-His) (UniProt P37173 23-166, limits assumed).
T2 construct: whole, on cells; Gift construct; also called TBβRII-His; TBβRII; not shown: His tag
T2 sequence (P37173 23-166 limits assumed): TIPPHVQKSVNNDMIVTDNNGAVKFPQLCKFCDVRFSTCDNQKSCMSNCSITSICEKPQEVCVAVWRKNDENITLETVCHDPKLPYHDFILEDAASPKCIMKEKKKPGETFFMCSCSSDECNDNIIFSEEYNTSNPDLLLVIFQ
Description: anti-His immunoprecipitation from surface-biotinylated 293T cells, avidin-HRP and anti-GRP78 blots. As for the experimental part: as §1, §2

B1: Cripto mutant lacking the CFC domain (ΔCFC), Flag-tagged (ligand, not shown: small tags and cut ends)
chain: not shown
notes: also called Cripto ACFC mutant; ACFC
As to B1, the binding result in assay [1] is “no binding”.

B2: TGF-β type I receptor, HA-tagged (TβRI-HA) (receptor, UniProt P36897 34-503, looked up, not shown: small tags and cut ends)
chain: LQCFCHLCTKDNFTCVTDGLCFVSVTETTDKVIHNSMCIAEIDLIPRDRPFVCAPSSKTGSVTTTYCCNQDHCNKIELPTTVKSSPGLGPVELAAVIAGPVCFVCISLMLMVYICHNRTVIHHRVPNEEDPSLDRPFISEGTTLKDLIYDMTTSGSGSGLPLLVQRTIARTIVLQESIGKGRFGEVWRGKWRGEEVAVKIFSSREERSWFREAEIYQTVMLRHENILGFIAADNKDNGTWTQLWLVSDYHEHGSLFDYLNRYTVTVEGMIKLALSTASGLAHLHMEIVGTQGKPAIAHRDLKSKNILVKKNGTCCIADLGLAVRHDSATDTIDIAPNHRVGTKRYMAPEVLDDSINMKHFESFKRADIYAMGLVFWEIARRCSIGGIHEDYQLPYYDLVPSDPSVEEMRKVVCEQKLRPNIPNRWQSCEALRVMAKIMRECWYANGAARLTALRIKKTLSQLSQQEGIKM
notes: whole, on cells; Gift construct; also called TBβRI-HA; TBβRI
B2: the binding result in assay [2] is given as “no binding”.

Take B3: the binding result in assay [3] is reported as “no binding”.
